Consider 1 substance from patent publication US20030224972A1.

The target in the test is MC1-R. As to the kind of experiment: cell-based or functional assay.

For the substance “Recombinant mouse agouti signal protein (from UniProt Q03288 23-131) (ligand)”, the inhibits activation of the MC1-R was found to be 220 pM.
